Data from patent publication US7892567.

Target: T1, transcription factor RFX-5, P48382
T1 chain: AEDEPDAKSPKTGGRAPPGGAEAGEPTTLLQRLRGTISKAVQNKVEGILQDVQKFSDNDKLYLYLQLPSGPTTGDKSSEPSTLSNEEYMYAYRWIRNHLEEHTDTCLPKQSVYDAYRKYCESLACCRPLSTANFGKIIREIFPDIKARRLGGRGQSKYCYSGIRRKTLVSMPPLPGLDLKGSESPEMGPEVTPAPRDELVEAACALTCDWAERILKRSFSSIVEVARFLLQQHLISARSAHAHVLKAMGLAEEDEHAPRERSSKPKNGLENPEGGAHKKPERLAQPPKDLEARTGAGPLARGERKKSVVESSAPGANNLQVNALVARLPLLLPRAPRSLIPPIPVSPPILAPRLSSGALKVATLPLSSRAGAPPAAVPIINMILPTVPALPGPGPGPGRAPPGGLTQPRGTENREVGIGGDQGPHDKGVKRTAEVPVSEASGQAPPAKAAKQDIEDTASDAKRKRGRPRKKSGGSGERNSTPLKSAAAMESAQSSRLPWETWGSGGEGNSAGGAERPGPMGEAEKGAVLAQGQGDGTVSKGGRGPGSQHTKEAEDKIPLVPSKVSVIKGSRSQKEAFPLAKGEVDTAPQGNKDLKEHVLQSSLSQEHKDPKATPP

B1: recombinant chlamydial protease-like activity factor (CPAF) from the C. trachomatis L2 genome, fusion protein with a 6-His tag at the N-terminus (protein)
chain: MGFWRTSIMKMNRIWLLLLTFSSAIHSPVRGESLVCKNALQDLSFLEHLLQVKYAPKTWKEQYLGWDLVQSSVSAQQKLRTQENPSTSFCQQVLADFIGGLNDFHAGVTFFAIESAYLPYTVQKSSDGRFYFVDIMTFSSEIRVGDELLEVDGAPVQDVLATLYGSNHKGTAAEESAALRTLFSRMASLGHKVPSGRTTLKIRRPFGTTREVRVKWRYVPEGVGDLATIAPSIRAPQLQKSMRSFFPKKDDAFHRSSSLFYSPMVPHFWAELRNHYATSGLKSGYNIGSTDGFLPVIGPVIWESEGLFRAYISSVTDGDGKSHKVGFLRIPTYSWQDMEDFDPSGPPPWEEFAKIIQVFSSNTEALIIDQTNNPGGSVLYLYALLSMLTDRPLELPKHRMILTQDEVVDALDWLTLLENVDTNVESRLALGDNMEGYTVDLQVAEYLKSFGRQVLNCWSKGDIELSTPIPLFGFEKIHPHPRVQYSKPICVLINEQDFSCADFFPVVLKDNDRALIVGTRTAGAGGFVFNVQFPNRTGIKTCSLTGSLAVREHGAFIENIGVEPHIDLPFTANDIRYKGYSEYLDKVKKLVCQLINNDGTIILAEDGSF
degradation of the transcription factor RFX-5: the biological activity of recombinant CPAF was confirmed by the ability to degrade the transcription factor, RFX-5
